# Assay results: IntAct's records for PubMed 17699755
# Biological target: hfr1_arath HFR1 (UniProt Q9FE22)
# Sequence (Q9FE22 whole entry): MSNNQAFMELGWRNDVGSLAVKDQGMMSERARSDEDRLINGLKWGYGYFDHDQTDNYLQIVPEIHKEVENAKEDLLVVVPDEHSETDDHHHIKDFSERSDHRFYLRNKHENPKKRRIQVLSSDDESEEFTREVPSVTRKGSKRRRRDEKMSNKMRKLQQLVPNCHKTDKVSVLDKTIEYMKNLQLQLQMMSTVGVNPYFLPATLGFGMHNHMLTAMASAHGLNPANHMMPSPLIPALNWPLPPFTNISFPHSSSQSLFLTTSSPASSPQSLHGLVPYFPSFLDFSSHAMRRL
# Transcription factor LAF1 (Arabidopsis thaliana (Mouse-ear cress)), Q9M0K4 R97A, sequence (Q9M0K4 whole entry R97A): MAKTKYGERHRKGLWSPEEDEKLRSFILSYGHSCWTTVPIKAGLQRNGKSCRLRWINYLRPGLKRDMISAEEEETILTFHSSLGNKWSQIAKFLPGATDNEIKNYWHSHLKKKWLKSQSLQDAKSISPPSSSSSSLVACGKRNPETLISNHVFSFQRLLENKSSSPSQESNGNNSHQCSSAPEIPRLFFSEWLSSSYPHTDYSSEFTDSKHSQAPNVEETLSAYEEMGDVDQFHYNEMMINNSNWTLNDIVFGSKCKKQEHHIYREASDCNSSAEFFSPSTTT
row,effect of a mutation on the interaction,Substance
1,disrupting interaction,"Transcription factor LAF1 (Arabidopsis thaliana (Mouse-ear cress)), Q9M0K4 R97A"
2,decreasing interaction,"Transcription factor LAF1 (Arabidopsis thaliana (Mouse-ear cress)), Q9M0K4 W87A"
